Reference: US7285408B2, “Crystalline form of an n231 mutant catalytic domain of ADAM33 and methods of use thereof” (Schering Corporation, priority 2002, dated 2007)

Columns and labels:
[1] = Thermal denaturation monitored by circular dichroism (220 nm) as a function of temperature and CaCl2 concentration; assay type: physicochemical
Protocol: The effect of CaCl2 on the stability of the ADAM33 N231Q catalytic domain as determined by thermal denaturation: The effect of the concentration of CaCl2 on the retention of the secondary structure of the ADAM33 N231Q catalytic domain was monitored by circular dichroism (λ220 nm) as a function of temperature. A parallel study was performed replacing the CaCl2 with NaCl to control for the effect of the corresponding increase in ionic strength. The ADAM33 N231Q catalytic domain was purified as described above and then diluted to 0.2 mg/ml. The sample was then dialyzed against 25 mM Hepes, pH 7.5, 5% glycerol overnight. The temperature dependent protein denaturation was performed using a JASCO 810 spectropolarimeter under the following conditions: • Protein concentration: 0.2 mg/ml (based on a BioRad Protein Assay) • Cell length: 0.1 cm • Monitor wavelength: 220 nm • Temperature slope: 2° C./min • Measurement range: 20-80° C.
Therefore, greater than 10 μM CaCl2, and preferably between 0.3-100 mM CaCl2 should be included to maintain the stability of this protein.

[2] = Storage stability of purified protein (N-terminal sequencing, mass spectrometry, enzymatic assay); assay type: physicochemical; settings: 4° C.; expression induced with 0.5 mM CuSO4, purified as complex of pro and catalytic domains
Protocol: The Ni-NTA column was washed with 15-20 CV of buffer C until a stable baseline was achieved, and the protein was eluted with 250 mM imidazole in buffer C. The eluted protein was concentrated to 5-15 mg/ml, and then applied to a SUPERDEX-75 gel filtration column equilibrated with buffer GF (25 mM HEPES, pH 7.5, 150 mM NaCl, 10% glycerol, 50 mM imidazole). Fractions corresponding to the monomer of ADAM33 were pooled, and diluted to 0.3 mg/ml, flash-frozen in liquid nitrogen, and stored at −80° C. […] When used for crystallography, the frozen protein was thawed on ice and concentrated to 10 mg/ml using Ultrafree®-15 Centrifugation Filter Device (Millipore, Bedford, Mass.). The thawed protein was immediately subjected to crystallization trials. Using this protocol a total of 1-9 mg of ADAM33 N231Q comprising the amino acid sequence of SEQ ID NO: 8 and SEQ ID NO: 36 (the C-Terminal Ser-Gly His6 Tag) was obtained from 1 liter of conditioned medium. 5 mM CaCl2 is preferably included throughout the purification process. It is also preferred that 5 mM CaCl2 is retained in the storage buffer.
After designing an appropriate DNA construct, the expression of the ADAM33 catalytic domain in an eukaryotic cell line needed to be optimized. […] However, under these induction conditions, Cu^2+ readily binds to the C-terminal His6 Tag. […]

B1: ADAM33 N231Q: modified human ADAM33 catalytic domain, Asn231 replaced by glutamine (SEQ ID NO: 8) with C-terminal Ser-Gly His6 Tag (protein)
chain: EARRTRKYLELYIVADHTLFLTRHRNLQHTKQRLLEVANYVDQLLRTLDIQVALTGLEVWTERDRSRVTQDANATLWAFLQWRRGLWAQRPHDSAQLLTGRAFQGATVGLAPVEGMCRAESSGGVSTDHSELPIGAAATMAHEIGHSLGLSHDPDGCCVEAAAESGGCVMAAATGHPFPRVFSACSRRQLRAFFRKGGGACLSNAPSGHHHHHH
modifications: C-terminal Ser-Gly His6 tag; homo sapiens
For B1, the “ΔDenaturation Temp.” value ([1]; CaCl2 0 mM) was 0.0 °C, the “Denaturation Temp.” value ([1]; CaCl2 0 mM, 0.2 mg/ml protein, 25 mM Hepes pH 7.5, 5% glycerol) was 43.5 °C and the “Denaturation Temp.” value ([1]; CaCl2 0.003 mM) was 50.6 °C. The “ΔDenaturation Temp.” value ([1]; CaCl2 0.003 mM vs 0 mM) was 7.1 °C, the “Denaturation Temp.” value ([1]; CaCl2 0.03 mM) was 52.9 °C and the “ΔDenaturation Temp.” value ([1]; CaCl2 0.03 mM vs 0 mM) was 9.4 °C. The “Denaturation Temp.” value ([1]; CaCl2 0.3 mM) was 53.9 °C, the “ΔDenaturation Temp.” value ([1]; CaCl2 0.3 mM vs 0 mM) was 10.4 °C and the “Denaturation Temp.” value ([1]; CaCl2 0.5 mM) was 56.9 °C. For the same molecule, the “ΔDenaturation Temp.” value ([1]; CaCl2 0.5 mM vs 0 mM) was 13.4 °C, the “Denaturation Temp.” value ([1]; CaCl2 1.0 mM) was 57.9 °C and the “ΔDenaturation Temp.” value ([1]; CaCl2 1.0 mM vs 0 mM) was 14.4 °C. For the same molecule, the “Denaturation Temp.” value ([1]; CaCl2 2.5 mM) was 60.6 °C, the “ΔDenaturation Temp.” value ([1]; CaCl2 2.5 mM vs 0 mM) was 17.1 °C and the “Denaturation Temp.” value ([1]; CaCl2 5.0 mM) was 61.5 °C. For the same molecule, the “ΔDenaturation Temp.” value ([1]; CaCl2 5.0 mM vs 0 mM) was 18.0 °C, the “Denaturation Temp.” value ([1]; CaCl2 10.0 mM) was 63.3 °C and the “ΔDenaturation Temp.” value ([1]; CaCl2 10.0 mM vs 0 mM) was 19.8 °C. For the same molecule, the “Denaturation Temp.” value ([1]; CaCl2 25.0 mM) was 64.6 °C, the “ΔDenaturation Temp.” value ([1]; CaCl2 25.0 mM vs 0 mM) was 21.1 °C and the “Denaturation Temp.” value ([1]; CaCl2 50.0 mM) was 65.6 °C. For the same molecule, the “ΔDenaturation Temp.” value ([1]; CaCl2 50.0 mM vs 0 mM) was 22.1 °C, the “Denaturation Temp.” value ([1]; CaCl2 100.0 mM) was 65.2 °C and the “ΔDenaturation Temp.” value ([1]; CaCl2 100.0 mM vs 0 mM) was 21.7 °C. For the same molecule, the “stability in the presence of CaCl2 relative to NaCl” value ([1]; equivalent ionic strength) was “significantly greater stability”.

B2: wild type (WT) ADAM33: ADAM33 protein fragment with pre, pro and wild type catalytic domain and Ser-Gly-His6 Tag expressed in Drosophila S2 cells (SEQ ID NO: 2) (protein)
chain: MKLCILLAVVAFVGLSLGRSPWPGVPLQGHIPGQPVTPHWVLDGQPWRTVSLEEPVSKPDMGLVALEAEGQELLLELEKNHRLLAPGYIETHYGPDGQPVVLAPNHTDHCHYQGRVRGFPDSWVVLCTCSGMSGLITLSRNASYYLRPWPPRGSKDFSTHEIFRMEQLLTWKGTCGHRDPGNKAGMTSLPGGPQSRGRREARRTRKYLELYIVADHTLFLTRHRNLNHTKQRLLEVANYVDQLLRTLDIQVALTGLEVWTERDRSRVTQDANATLWAFLQWRRGLWAQRPHDSAQLLTGRAFQGATVGLAPVEGMCRAESSGGVSTDHSELPIGAAATMAHEIGHSLGLSHDPDGCCVEAAAESGGCVMAAATGHPFPRVFSACSRRQLRAFFRKGGGACLSNAP
modifications: Ser-Gly-His6 tag; homo sapiens
With B2 the “stability of purified protein” value [2] was “labile”.
